For experiment [1], the target named is alanine scanning peptide 9A (KAPMPF). As to the kind of experiment: competition ELISA, captured mAb, peptide competes with biotin-apelin-13, A405. How it is done:
(§1) Goat anti-rabbit IgG was immobilized on an ELISA plate. […] Several competition peptides were used as controls.
(§2) For the peptide competition assay, goat anti-rabbit IgG in carbonate coating buffer was coated on high binding ELISA plates at 1 μg/ml overnight. […] After incubation at room temperature for 60 minutes, the plates were washed and then streptavidin-conjugated to alkaline phosphatase was added, and the binding was detected by adding PNPP substrate and reading absorbance of ELISA plates at 405 nm. Each competition peptide or control sample was assayed in duplicate for a given mAb. […] “No comp:” no competition peptide was added; “No Ab, No Comp:” neither competition peptide nor anti-apelin mAb was added.
(In general: ELISA stands for enzyme-linked immunosorbent assay.)

Experiment [2] deals with T1, alanine scanning peptide 10A (KGAMPF).
T1 peptide: KGAMPF
Described as above. Here is the method:
as §1, §2

The target of experiment [3] is T2, apelin peptide 2-13 (RPRLSHKGPMPF).
T2 peptide: RPRLSHKGPMPF
Described as above. Here is the method: as §1, §2

Experiment [4] deals with alanine scanning peptide 8A (AGPMPF). The experiment is described as above. How it is done:
as §1, §2

For experiment [5], the target named is T3, biotin-apelin-13 (biotin-…) (N-terminal biotin).
T3 construct: also called Biotin-APL13
Description: SPR (Biacore), biotin-apelin-13 on streptavidin CM5 chip, mAb at 12.5-100 nM. How it is done: Anti-apelin mAbs at four different concentrations (12.5 nM, 25 nM, 50 nM and 100 nM) were captured on the chip surface. The on- and off-rate for antibody-antigen binding were measured, curve fitted and calculated.
(In general: In SPR one partner is held on a chip, and binding of the other changes the refractive index at the surface.)

Experiment [6] addresses T4, apelin peptide 8-13 (KGPMPF).
T4 peptide: KGPMPF
As to the kind of experiment: competition ELISA, captured mAb, peptide competes with biotin-apelin-13, A405. Here is the method:
(§3) Goat-anti-rabbit IgG was immobilized on an ELISA plate.
(§4) The antibody binding sites for anti-apelin mAbs C8, C24, and C25 were mapped using an ELISA-based peptide competition assay. […] Each of the competition peptides (Table 7) was assessed for its ability to inhibit biotin-apelin-13 binding to the mAb. An inhibition signal reflects the ability of the competition peptide to bind to the mAb in solution.
as §2

Experiment [7] deals with T5, apelin peptide 5-13 (LSHKGPMPF).
T5 peptide: LSHKGPMPF
The description is as above. Here is the method: as §3, §4, §2

For experiment [8], the target named is T6, apelin peptide 4-13 (RLSHKGPMPF).
T6 peptide: RLSHKGPMPF
The description is as above. How it is done: as §3, §4, §2

Experiment [9] deals with T7, apelin peptide 1-12 (QRPRLSHKGPMP).
T7 peptide: QRPRLSHKGPMP
The description is as above. Here is the method: as §3, §4, §2

The next experiment concerns the target T8, 10-13.
T8 construct: also called apelin peptide 10-13 (PMPF)
T8 peptide: PMPF
The description is as above. Here is the method: as §3, §4, §2

Experiment [10] concerns the target T9, apelin peptide 3-13 (PRLSHKGPMPF).
T9 peptide: PRLSHKGPMPF
The experiment is described as above. How it is done:
as §3, §4, §2

In experiment [11] the target is T10, apelin peptide 6-13 (SHKGPMPF).
T10 peptide: SHKGPMPF
The description is as above. How it is done:
as §3, §4, §2

Experiment [12] has as its target T11, apelin peptide 7-13 (HKGPMPF).
T11 peptide: HKGPMPF
Described as above. How it is done: as §3, §4, §2

The target in another experiment is T12, 9-13.
T12 construct: also called apelin peptide 9-13 (GPMPF)
T12 peptide: GPMPF
The experiment is described as above. Here is the method:
as §3, §4, §2

In experiment [13] the target is T13, alanine scanning peptide 13A (KGPMPA).
T13 peptide: KGPMPA
The experiment is described as above. Here is the method: as §1, §2

Another experiment deals with T14, Biotin-APL17.
T14 peptide: Biotin-KFRRQRPRLSHKGPMPF
Description: ELISA, peptide on neutravidin plate, mAb 200 ng/ml, A405. Here is the method: (§5) FIGS. 1A-1C show binding of anti-apelin mAbs to various biotinylated apelin peptides measured by ELISA. Biotinylated apelin peptides were immobilized on ELISA plates coated with neutravidin and purified recombinant rabbit anti-apelin mAbs were added for binding to the peptides on the plates. The binding was detected by adding a goat anti-rabbit IgG Fc-conjugated to alkaline phosphatase and PNPP substrate, and measured as the absorbance at 405 nm.
(§6) For the binding assay, neutravidin in carbonate coating buffer was coated on high binding ELISA plates at 1 μg/ml overnight. Peptides were added at 4 μg/ml after the plates were blocked with 1% BSA in TBS. After incubation of the plates at room temperature for 60 minutes, the plates were washed and then purified recombinant rabbit antibodies were added at 200 ng/ml. Following rabbit antibody binding to the peptides on the plates at room temperature for 90 minutes, goat anti-rabbit IgG Fc-conjugated to alkaline phosphatase was added, and antibody-antigen binding was detected by adding PNPP substrate and reading absorbance of ELISA plates at 405 nm. Each mAb was assayed in duplicate.

The target in experiment [14] is T15, pyr-apelin-13-biotin (pE-RPRLSHKGPMPF-biotin) (N-terminal pyroglutamate (pE); C-terminal biotin).
T15 construct: also called pyrAPL13-Biotin
T15 peptide: ERPRLSHKGPMPF
The description is as above. Here is the method:
as §5, §6

In experiment [15] the target is T3, biotin-apelin-13 (biotin-…). As to the kind of experiment: ELISA, increasing concentrations of IgG4 mAb immobilized on plate, biotin-apelin-13 added, streptavidin-AP detection. The source says:
Two additional humanized mAbs (B24 and B25) were generated with sequence modifications on A31. […] The binding was then detected by adding PNPP substrate and reading absorbance of the ELISA plates at 405 nm.

Residue numbers refer to the chain shown, from its start. No end group written: not given here. *: point of attachment. Biotin = O=C1N[C@H]2[C@H](CS[C@H]2CCCCC(=O)*)N1

B1: anti-apelin mAb C8 (antibody, V domains shown)
VH: QSVEESGGRLVTPGTPLTLTCTVSGIDLYSNRMSWVRQAPGKGLEWIGSIGSSPWYASWAQGRFTISKTSSTTVNLKITSPTTEDTATYFCAKGGYRPGASVWGPGTLVTVSS
VL: QVLTQTESPVSAPVGGTVTIACQSSQSVYDNNDLAWYQQKAGQTPKRLIYLASSLDSGVPSRFKGSGSGTEFTLTISDLECDDAATYYCAGGYSGDIYTFGGGTEVVVE
notes: recombinant rabbit IgG made in HEK293 cells
Regarding B1, the binding result in [1], in experiment [2], in experiment [3], in experiment [4], in experiment [6] and in experiment [7] was “binds” in each case. Moreover, the binding result in experiment [8] is reported as “binds”; in experiment [9], “no binding (tested: peptide concentration not stated)”; in the experiment with 10-13, “binds”; in experiment [10], “binds”; in experiment [11], “binds”; in experiment [12] it was “binds”. Besides, the binding result with 9-13 is listed as “binds”. The same molecule came in with a Kd in [5] of 0.0174 nM.

B2: anti-apelin mAb C25 (antibody, V domains shown)
VH: QSLEESGGGLVTPGTPLTLTCTVSGIDLYTNRMSWVRQAPGKGLEWIGSIGSSPWFASWALGRFTISKTSTTVNLKITSPTTEDTATYFCAKGGYRPGASVWGPGTLVTVSS
VL: B1 VL with Y50F, S94N, E109K
notes: as for B1
Consider B2, for which the binding result in [1] is “binds”; in experiment [2] it was “binds”; in experiment [13], “no binding (tested: peptide concentration not stated)”; in experiment [3] it was “binds”; in experiment [4], “binds”; in experiment [6], “binds”. For the same molecule, the binding result in experiment [7] is “binds”; in experiment [8] it was “binds”; in experiment [9], “no binding (tested: peptide concentration not stated)”; in the experiment with 10-13, “binds”; in [10], “binds”; in experiment [11] it was “binds”. Besides, the binding result (in experiment [12]; with 9-13) was “binds” each time. Further, in experiment [5], the affinity, expressed as Kd, was 0.0508 nM.

B3: anti-apelin mAb C24 (antibody, V domains shown)
VH: B2 VH with G9R, M33V, E45D, F56Y, L61Q, P80S, A99G, V101I
VL: B1 VL with T6S, E7A, P13A, G16D, T17S, A35G, A41P, K64S, E71Q, E109K
notes: as for B1
Turning to B3, the binding result in experiment [1] is given as “binds”; in [2], “binds”; in experiment [13], “no binding (tested: peptide concentration not stated)”; in [3] it was “binds”; in experiment [4], “binds”; in experiment [6], “binds”. In addition, the binding result was “binds” in [7]; “binds” in [8]; “no binding (tested: peptide concentration not stated)” in experiment [9]; “binds” with 10-13; “binds” in experiment [10]; “binds” in experiment [11]. The binding result (in experiment [12]; in the experiment with 9-13) was “binds” throughout. The Kd in experiment [5] stood at 0.000401 nM.

B4: anti-apelin mAb C27 (antibody, V domains shown)
VH: QSVEESGGRLVTPGGSLTLTCTVSGIDLINAWMNWVRQAPGKGLEWIGTTTDDDTIYYANWAKGRFTISRTSTTVDLKVTSLTSEDTATYFCSKGRIWGPGTLVTVSL
VL: QVLTQTPASVSAAVGGTVTINCQASQSVYDGNWLCWYQQKPGQPPKRLIYKASTLESGVPSRFKGSGSGTQFTLTISDLECDDAATYYCQGGFTSNIYPFAGGTEVVVK
notes: as for B1
As to B4, the Kd in [5] came out at 0.589 nM. In addition, the binding result in the experiment with Biotin-APL17 was “binds”; in [14], “no binding (tested: 200 ng/ml)”.

B5: anti-apelin mAb C26 (antibody, V domains shown)
VH: QEQLEESGGGLVQPEGSLTLTCTASGFTLSNYWMSWVRQAPGKGLVWIGCIDIGSDDTYYASWAKGRFTISRTSSTTVTLQVTSLTAADTATYFCARSGGLWGPGTLVTVSS
VL: QVLTQTPSSTSAAVGGTVTINCQASQSVYNNNDLAWYQQKPGQPPKRLIYEASKLASGVPSRFSGSGSGTQFTLTISDLECDDAATYYCAGGWSGNFYVFGGGTEVVVK
notes: as for B1
In turn, B5 showed a Kd in experiment [5] of 0.119 nM. Further, the binding result in experiment [14] was “no binding (tested: 200 ng/ml)”.

B6: humanized anti-apelin mAb B24 (human IgG4 backbone) (antibody, V domains shown)
VH: QSLEESGGGLVQPGGSLRLSCTVSGIDLYTNRVSWVRQAPGKGLEWVGSIGSSPWYASWAQGRFTISRDNSNTVYLKMNSPTAEDTATYFCAKGGYRPGGSIWGQGTLVTVSS
VL: DIQLTQSPSSLSASVGDRVTITCQSSQSIYDNNDLGWYQQKPGKTPKRLIYLASSLDSGVPSRFSGSGSGTDFTLTISSLQPEDVATYYCAGGYSGDIYTFGGGTKVEIK
As for B6, the 50% effective concentration (EC50) in [15] came out at 0.79 nM.

B7: humanized anti-apelin mAb A31 (human IgG4 backbone) (antibody, V domains shown)
VH: B6 VH with T22A, T30S, V33M, K77Q, P81L, G100A, I102V
VL: B6 VL with G36A
Molecule B7 returned a 50% effective concentration (EC50) in experiment [15] of 0.21 nM.

B8: humanized anti-apelin mAb B25 (human IgG4 backbone) (antibody, V domains shown)
VH: B6 VH with V33M, Y56F, Q61L, G100A, I102V
VL: B6 VL with G36A, S95N
In turn, B8 displayed a half-maximal effective concentration (EC50) in experiment [15] of 0.47 nM.

By Kd is commonly meant a measure of binding affinity in units of concentration. Lower therefore signals higher affinity. As usually defined, the EC50 is the concentration giving half of the maximal effect. Read a high EC50 as a less potent agent.
